According to the supplement of paper PMC9732359:
± gives the uncertainty stated by the source.

Assay: protein stability index of a GFP-peptide fusion (yeast GPS) (PSI 1-4); higher = more stable; sorted into four equal gates, so the index is relative within each strain
Method in brief: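 The protein stability index of a peptide was calculated by multiplying its read frequency in each gate by that gate's number and adding the products. The peptides were tiled 17-residue stretches of yeast proteins, fused downstream of GFP on a Cherry-expressing plasmid and carried in yeast as a pooled library. Mid-log cultures in leucine-free medium were sorted into four equal gates by GFP/Cherry ratio, and each gate's plasmids were PCR-amplified and Illumina-sequenced.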

Sequence: ERLMSRPFGVALLIAGH [PUP2]
- protein stability index (doa10∆): 2.81 ± 0.28
- protein stability index (pdr5∆): 3.08 ± 0.11
- protein stability index (san1∆): 2.74 ± 0.1
- protein stability index (ubr1∆): 2.95 ± 0.081

Sequence: VENLTVAQECIAFLKKQ [SMC1]
- protein stability index (doa10∆): 2.12 ± 0.065
- protein stability index (pdr5∆): 2.47 ± 0.07
- protein stability index (san1∆): 2.42 ± 0.086
- protein stability index (ubr1∆): 1.98 ± 0.051

Sequence: LYVDSESTSSTEEVEAL [MTW1]
- protein stability index (doa10∆): 2.92 ± 0.11
- protein stability index (pdr5∆): 3.76 ± 0.15
- protein stability index (san1∆): 3.14 ± 0.19
- protein stability index (ubr1∆): 3.24 ± 0.11

Sequence: IQELEDQRDELLEQKKS [ITC1]
- protein stability index (doa10∆): 3.21 ± 0.067
- protein stability index (pdr5∆): 3.11 ± 0.055
- protein stability index (san1∆): 3.24 ± 0.045
- protein stability index (ubr1∆): 3.31 ± 0.061

Sequence: LETLFNRWHSESWANQL [FAS2]
- protein stability index (doa10∆): 2.81 ± 0.055
- protein stability index (pdr5∆): 2.89 ± 0.076
- protein stability index (san1∆): 2.87 ± 0.055
- protein stability index (ubr1∆): 3.02 ± 0.056

Sequence: INKIVEILTNQQRGITY [YGR119C/NUP57]
- protein stability index (doa10∆): 1.64 ± 0.073
- protein stability index (pdr5∆): 1.99 ± 0.12
- protein stability index (san1∆): 2.12 ± 0.13
- protein stability index (ubr1∆): 2.09 ± 0.065

Sequence: VEINSSESDLDEDKNFP [ESC2]
- protein stability index (doa10∆): 2.99 ± 0.063
- protein stability index (pdr5∆): 2.66 ± 0.056
- protein stability index (san1∆): 3.25 ± 0.052
- protein stability index (ubr1∆): 3.16 ± 0.057

Sequence: TTDNNNSGNSNSNSNQQ [RPT1]
- protein stability index (doa10∆): 3.3 ± 0.12
- protein stability index (pdr5∆): 2.93 ± 0.14
- protein stability index (san1∆): 2.59 ± 0.23
- protein stability index (ubr1∆): 3.36 ± 0.2

Sequence: LSDVAFYVQDVYKDNLS [RPO31]
- protein stability index (doa10∆): 1.8 ± 0.12
- protein stability index (pdr5∆): 1.7 ± 0.12
- protein stability index (ubr1∆): 1.22 ± 0.14

Sequence: WEQLKITVVPVVAAAED [QCR6]
- protein stability index (doa10∆): 1.89 ± 0.059
- protein stability index (pdr5∆): 2.14 ± 0.059
- protein stability index (san1∆): 1.99 ± 0.099
- protein stability index (ubr1∆): 2.03 ± 0.033

Sequence: HLLSINYGEKEERKRWA [PCI8]
- protein stability index (doa10∆): 3.17 ± 0.11
- protein stability index (pdr5∆): 3.13 ± 0.096
- protein stability index (san1∆): 3.41 ± 0.18
- protein stability index (ubr1∆): 3.4 ± 0.095

Sequence: FAIRDDRDHINPDDLMK [RPT4]
- protein stability index (doa10∆): 2.65 ± 0.15
- protein stability index (pdr5∆): 2.99 ± 0.14
- protein stability index (san1∆): 3.51 ± 0.093
- protein stability index (ubr1∆): 3.33 ± 0.11

Sequence: STIEKDMKEYDSDKGSK [SMC2]
- protein stability index (doa10∆): 3.25 ± 0.1
- protein stability index (pdr5∆): 3.44 ± 0.071
- protein stability index (san1∆): 3.37 ± 0.056
- protein stability index (ubr1∆): 3.44 ± 0.075

Sequence: QLLDIAEFKKENLADLD [LIN1]
- protein stability index (doa10∆): 1.48 ± 0.092
- protein stability index (pdr5∆): 1.55 ± 0.097
- protein stability index (san1∆): 1.24 ± 0.12
- protein stability index (ubr1∆): 2.95 ± 0.096

Sequence: LANWFLEVYASGNPNAT [YML031W/NDC1]
- protein stability index (doa10∆): 2.03 ± 0.055
- protein stability index (pdr5∆): 2.17 ± 0.046
- protein stability index (san1∆): 2.37 ± 0.075
- protein stability index (ubr1∆): 1.69 ± 0.045

Sequence: KWQTLIEANVTVKTSDD [RPS1A]
- protein stability index (doa10∆): 1.42 ± 0.05
- protein stability index (pdr5∆): 1.62 ± 0.044
- protein stability index (san1∆): 1.61 ± 0.078
- protein stability index (ubr1∆): 1.67 ± 0.037

Sequence: DITVHGEQIIVHPVNER [RRP45]
- protein stability index (doa10∆): 2.23 ± 0.078
- protein stability index (pdr5∆): 2.15 ± 0.1
- protein stability index (san1∆): 1.82 ± 0.14
- protein stability index (ubr1∆): 1.9 ± 0.083

Sequence: EDLHEKNDSAEVRQETQ [NUT1]
- protein stability index (doa10∆): 3.48 ± 0.1
- protein stability index (pdr5∆): 3.28 ± 0.2
- protein stability index (san1∆): 3.13 ± 0.083
- protein stability index (ubr1∆): 3.53 ± 0.075

Sequence: PSSEKPNIRTMSGTTKR [SSN2]
- protein stability index (pdr5∆): 2.45 ± 0.27

Sequence: GGSATARHKKKVENLDY [YML031W/NDC1]
- protein stability index (doa10∆): 3.4 ± 0.14
- protein stability index (pdr5∆): 3.38 ± 0.14
- protein stability index (san1∆): 3.06 ± 0.12
- protein stability index (ubr1∆): 3.62 ± 0.29

Sequence: IALEGYRLDIIESALKS [RPN2]
- protein stability index (pdr5∆): 1.49 ± 0.15
- protein stability index (ubr1∆): 1.25 ± 0.15

Sequence: IFTCQIMNLITNEPCGA [RPN4]
- protein stability index (doa10∆): 2.07 ± 0.087
- protein stability index (pdr5∆): 2.61 ± 0.18
- protein stability index (san1∆): 2.36 ± 0.21

Sequence: AAESKKYRQTKLSKEER [RPL5]
- protein stability index (doa10∆): 3.1 ± 0.23
- protein stability index (san1∆): 3.05 ± 0.22
- protein stability index (ubr1∆): 3.06 ± 0.26

Sequence: KKNNAASELANPYSSYV [YAR002W/NUP60]
- protein stability index (doa10∆): 2.99 ± 0.062
- protein stability index (pdr5∆): 3.02 ± 0.047
- protein stability index (san1∆): 2.98 ± 0.047
- protein stability index (ubr1∆): 2.83 ± 0.054

Sequence: GSQILSGVMDKSVLGDG [RPO31]
- protein stability index (doa10∆): 3.49 ± 0.12
- protein stability index (pdr5∆): 3.28 ± 0.12
- protein stability index (san1∆): 3.41 ± 0.068
- protein stability index (ubr1∆): 3.55 ± 0.067

Sequence: ELLSSLEGKGSLEEIIA [RPP2B]
- protein stability index (doa10∆): 2.27 ± 0.08
- protein stability index (pdr5∆): 2.24 ± 0.061
- protein stability index (san1∆): 2.63 ± 0.052
- protein stability index (ubr1∆): 1.92 ± 0.064

Sequence: TRAMEYLKFRELPAGQN [RPB2]
- protein stability index (doa10∆): 2.4 ± 0.072
- protein stability index (pdr5∆): 2.75 ± 0.084
- protein stability index (san1∆): 3.13 ± 0.071
- protein stability index (ubr1∆): 3.02 ± 0.13

Sequence: NLSLYEATAASHERFFL [CSN12]
- protein stability index (doa10∆): 2.35 ± 0.065
- protein stability index (pdr5∆): 2.73 ± 0.072
- protein stability index (san1∆): 2.08 ± 0.12
- protein stability index (ubr1∆): 2.62 ± 0.065

Sequence: EFESELKNVEETQEIKE [ESC2]
- protein stability index (doa10∆): 3.54 ± 0.25
- protein stability index (pdr5∆): 3.46 ± 0.2
- protein stability index (san1∆): 3.25 ± 0.18
- protein stability index (ubr1∆): 3.29 ± 0.15

Sequence: NKLFTEPIKLEPVKEYT [YMR129W/POM152]
- protein stability index (doa10∆): 2.34 ± 0.05
- protein stability index (pdr5∆): 2.39 ± 0.06
- protein stability index (san1∆): 2.4 ± 0.084
- protein stability index (ubr1∆): 2.4 ± 0.072

Sequence: QNDELTMGMRALLKLSV [DIS3]
- protein stability index (doa10∆): 2.01 ± 0.094
- protein stability index (pdr5∆): 2.49 ± 0.078
- protein stability index (san1∆): 1.55 ± 0.067
- protein stability index (ubr1∆): 2.7 ± 0.066

Sequence: KKVASANATAAESDVAK [RPL16A]
- protein stability index (doa10∆): 3.08 ± 0.054
- protein stability index (pdr5∆): 3.04 ± 0.065
- protein stability index (san1∆): 3.1 ± 0.036
- protein stability index (ubr1∆): 3.02 ± 0.038

Sequence: ISPDPNLSIDEVAVPDR [RPO31]
- protein stability index (doa10∆): 2.87 ± 0.089
- protein stability index (pdr5∆): 2.76 ± 0.084
- protein stability index (san1∆): 3.23 ± 0.069
- protein stability index (ubr1∆): 2.95 ± 0.049

Sequence: RDQGNDSLNDDLNKENK [YIL149C/MLP2]
- protein stability index (doa10∆): 3.23 ± 0.18
- protein stability index (san1∆): 3.01 ± 0.15
- protein stability index (ubr1∆): 3.32 ± 0.063

Sequence: LALMTAHSLSPKDYIKK [CDC53]
- protein stability index (doa10∆): 3.1 ± 0.06
- protein stability index (pdr5∆): 3.03 ± 0.059
- protein stability index (san1∆): 3.25 ± 0.04
- protein stability index (ubr1∆): 3.15 ± 0.052

Sequence: NVVNYLSINKNFINQED [RPC17]
- protein stability index (doa10∆): 1.39 ± 0.071
- protein stability index (pdr5∆): 1.83 ± 0.061
- protein stability index (san1∆): 1.55 ± 0.079
- protein stability index (ubr1∆): 1.61 ± 0.045

Sequence: ELLNADHQHILRKLKKM [RPC53]
- protein stability index (doa10∆): 1.13 ± 0.059
- protein stability index (pdr5∆): 1.24 ± 0.063
- protein stability index (san1∆): 1.11 ± 0.15
- protein stability index (ubr1∆): 1.28 ± 0.046

Sequence: IDEPIKSIMDGIHDGHI [FAS1]
- protein stability index (doa10∆): 1.97 ± 0.044
- protein stability index (pdr5∆): 1.87 ± 0.059
- protein stability index (san1∆): 1.52 ± 0.094
- protein stability index (ubr1∆): 1.57 ± 0.038

Sequence: ISAPSMEDEILSLGMDF [BRN1]
- protein stability index (doa10∆): 3.15 ± 0.057
- protein stability index (pdr5∆): 3.23 ± 0.05
- protein stability index (san1∆): 3.19 ± 0.05
- protein stability index (ubr1∆): 3.12 ± 0.044

Sequence: VVILARAKALGIKVTNP [RPL32]
- protein stability index (doa10∆): 3.16 ± 0.14
- protein stability index (pdr5∆): 3.2 ± 0.16
- protein stability index (san1∆): 2.55 ± 0.12
- protein stability index (ubr1∆): 2.93 ± 0.076

Sequence: KAPLEDDDKKPDDDKIV [RPT1]
- protein stability index (doa10∆): 2.67 ± 0.15
- protein stability index (pdr5∆): 3.11 ± 0.17
- protein stability index (san1∆): 3.19 ± 0.14
- protein stability index (ubr1∆): 3.26 ± 0.067

Sequence: LTVIEKLDSKKILPTDI [SRP68]
- protein stability index (doa10∆): 2.71 ± 0.13
- protein stability index (pdr5∆): 3 ± 0.12
- protein stability index (san1∆): 2.95 ± 0.1
- protein stability index (ubr1∆): 2.71 ± 0.061

Sequence: LIRLQMEKLDAKLNHLK [SWI3]
- protein stability index (doa10∆): 3.06 ± 0.17
- protein stability index (pdr5∆): 3.04 ± 0.15
- protein stability index (san1∆): 2.85 ± 0.15
- protein stability index (ubr1∆): 3.1 ± 0.2
